Data as given in patent US20230346885A1 (published 2023).
Numbering of substitutions follows the chain as printed.

Columns and labels:
Experiment in all cases: binding, other
ASCL2 peptide on HLA = target: T1, ASCL2 peptide on HLA (human)
T1 peptide: ALSPAERELL

BRDT peptide on HLA = target: T2, BRDT peptide on HLA (human)
T2 peptide: RLLDVNNQL

KLK4 peptide on HLA = target: T3, KLK4 peptide on HLA (human)
T3 peptide: SIASQCPTA

LGSN peptide on HLA = target: T4, LGSN peptide on HLA (human)
T4 peptide: ALGETFIRYFV

NPSR1 peptide on HLA = target: T5, NPSR1 peptide on HLA (human)
T5 peptide: AINPLIYCV

PAEP peptide on HLA [1] = target: T6, PAEP peptide on HLA (human)
T6 peptide: LLDTDYDNFL

PAEP peptide on HLA [2] = target: T7, PAEP peptide on HLA (human)
T7 peptide: MMCQYLARV

PAEP peptide on HLA [3] = target: T8, PAEP peptide on HLA (human)
T8 peptide: TLLDTDYDNFL

PIWIL1 peptide on HLA [4] = target: T9, PIWIL1 peptide on HLA (human)
T9 peptide: SLSNRLYYL

PIWIL1 peptide on HLA [5] = target: T10, PIWIL1 peptide on HLA (human)
T10 peptide: SLIQNLFKV

PIWIL1 peptide on HLA [6] = target: T11, PIWIL1 peptide on HLA (human)
T11 peptide: SIAGFVASI

RLN1 peptide on HLA = target: T12, RLN1 peptide on HLA (human)
T12 peptide: ALSERQPSL

B1: TCR of SEQ ID NOs 301 and 302 (TCR, V domains shown)
Valpha: QKEVEQNSGPLSVPEGAIASLNCTYSDRGSQSFFWYRQYSGKSPELIMSIYSNGDKEDGRFTAQLNKASQYVSLLIRDSQPSDSATYLCAVDTGRRALTFGSGTRLQVQP
Vbeta: NAGVTQTPKFQVLKTGQSMTLQCAQDMNHNSMYWYRQDPGMGLRLIYYSASEGTTDKGEVPNGYNVSRLNKREFSLRLESAAPSQTSVYFCASSTGGSYGYTFGSGTRLTVV
B1: recognises (ASCL2 peptide on HLA).

B2: TCR of SEQ ID NOs 319 and 320 (TCR, V domains shown)
Valpha: KQEVTQIPVALSVPEGENLVLNCSFTDSAIYNLQWFRQDPGKGLTSLLLIQSSQREQTSGRLNASLDKSSGRSTLYIAASQPGDSATYLCAVKGGANNLFFGTGTRLTVIP
Vbeta: NAGVTQTPKFRILKIGQSMTLQCTQDMNHNYMYWYRQDPGMGLKLIYYSVGAGITDKGEVPNGYNVSRSTTEDFPLRLLSAAPSQTSVYFCASRGDGDRSPLHFGNGTRLTVT
B2: recognises (BRDT peptide on HLA).

B3: TCR of SEQ ID NOs 321 and 322 (TCR, V domains shown)
Valpha: B2 Valpha with V9A, K93R, A96Y, N97Q, N98K, L99V, F100T, R106K, T108Q
Vbeta: B2 Vbeta with R11Q, I12V, I15T, T24A, Y31S, K44R, Y47H, K57Q
B3: recognises (BRDT peptide on HLA).

B4: TCR of SEQ ID NOs 401 and 402 (TCR, V domains shown)
Valpha: KQEVTQIPAALSVPEGENLVLNCSFTDSAIYNLQWFRQDPGKGLTSLLLIQSSQREQTSGRLNASLDKSSGRSTLYIAASQPGDSATYLCAVSPPAAGNKLTFGGGTRVLVKP
Vbeta: NAGVTQTPKFRILKIGQSMTLQCAQDMNHNYMYWYRQDPGMGLKLIYYSVGAGITDKGEVPNGYNVSRSTTEDFPLRLELAAPSQTSVYFCASSLTWTGGFGYTFGSGTRLTVV
B4: recognises (KLK4 peptide on HLA).

B5: TCR of SEQ ID NOs 403 and 404 (TCR, V domains shown)
Valpha: KQEVTQIPAALSVPEGENLVLNCSFTDSAIYNLQWFRQDPGKGLTSLLLIQSSQREQTSGRLNASLDKSSGRSTLYIAASQPGDSATYLCAVRPRGDSWGKLQFGAGTQVVVTP
Vbeta: NAGVTQTPKFQVLKTGQSMTLQCAQDMNHEYMSWYRQDPGMGLRLIHYSVGAGITDQGEVPNGYNVSRSTTEDFPLRLLSAAPSQTSVYFCASSPTGYGEAFFGQGTRLTVV
B5: recognises (KLK4 peptide on HLA).

B6: TCR of SEQ ID NOs 415 and 416 (TCR, V domains shown)
Valpha: KQEVTQIPAALSVPEGENLVLNCSFTDSAIYNLQWFRQDPGKGLTSLLLIQSSQREQTSGRLNASLDKSSGRSTLYIAASQPGDSATYLCAVRGYQKVTFGTGTKLQVIP
Vbeta: NAGVTQTPKFQVLKTGQSMTLQCAQDMNHEYMSWYRQDPGMGLRLIHYSVGAGITDQGEVPNGYNVSRSTTEDFPLRLLSAAPSQTSVYFCASSPGIGELFFGEGSRLTVL
B6: recognises (LGSN peptide on HLA).

B7: TCR of SEQ ID NOs 417 and 418 (TCR, V domains shown)
Valpha: KQEVTQIPAALSVPEGENLVLNCSFTDSAIYNLQWFRQDPGKGLTSLLLIQSSQREQTSGRLNASLDKSSGRSTLYIAASQPGDSATYLCAVRAQGGSEKLVFGKGTKLTVNP
Vbeta: NAGVTQTPKFRILKIGQSMTLQCTQDMNHNYMYWYRQDPGMGLKLIYYSVGAGITDKGEVPNGYNVSRSTTEDFPLRLELAAPSQTSVYFCASSYLGQDPEGAEAFFGQGTRLTVV
B7: recognises (LGSN peptide on HLA).

B8: TCR of SEQ ID NOs 437 and 438 (TCR, V domains shown)
Valpha: B1 Valpha with D92G, T93G, R95A, R96D, A97G, S102K, R105H, Q107I, V108I
Vbeta: NAGVTQTPKFRILKIGQSMTLQCTQDMNHNYMYWYRQDPGMGLKLIYYSVGAGITDKGEVPNGYNVSRSTTEDFPLRLELAAPSQTSVYFCASSYGNLGTEAFFGQGTRLTVV
B8: recognises (NPSR1 peptide on HLA).

B9: TCR of SEQ ID NOs 441 and 442 (TCR, V domains shown)
Valpha: QKEVEQNSGPLSVPEGAIASLNCTYSDRGSQSFFWYRQYSGKSPELIMSIYSNGDKEDGRFTAQLNKASQYVSLLIRDSQPSDSATYLCAVNDSGGYQKVTFGTGTKLQVIP
Vbeta: B5 Vbeta with P95Y, T96S, G97P, Y98G, G99N, E100G, A101Y, F102T, Q105S
B9: recognises (NPSR1 peptide on HLA).

B10: TCR of SEQ ID NOs 469 and 470 (TCR, V domains shown)
Valpha: B1 Valpha with D92R, T93R, G94N, R95T, R96D, A97K, T99I, S102T, Q109F
Vbeta: DTGVSQNPRHKITKRGQNVTFRCDPISEHNRLYWYRQTLGQGPEFLTYFQNEAQLEKSRLLSDRFSAERPKGSFSTLEIQRTEQGDSAMYLCASSPRDRSPYGYTFGSGTRLTVV
B10: recognises (PAEP peptide on HLA [1]).

B11: TCR of SEQ ID NOs 471 and 472 (TCR, V domains shown)
Valpha: KQEVTQIPAALSVPEGENLVLNCSFTDSAIYNLQWFRQDPGKGLTSLLLIQSSQREQTSGRLNASLDKSSGRSTLYIAASQPGDSATYLCAVSPINDYKLSFGAGTTVTVRA
Vbeta: KAGVTQTPRYLIKTRGQQVTLSCSPISGHRSVSWYQQTPGQGLQFLFEYFSETQRNKGNFPGRFSGRQFSNSRSEMNVSTLELGDSALYLCASSLVGTGGSPLHFGNGTRLTVT
B11: recognises (PAEP peptide on HLA [1]).

B12: TCR of SEQ ID NOs 475 and 476 (TCR, V domains shown)
Valpha: QKEVEQNSGPLSVPEGAIASLNCTYSDRGSQSFFWYRQYSGKSPELIMFIYSNGDKEDGRFTAQLNKASQYVSLLIRDSQPSDSATYLCAVDGSYIPTFGRGTSLIVHP
Vbeta: NAGVTQTPKFRVLKTGQSMTLLCAQDMNHEYMYWYRQDPGMGLRLIHYSVGEGTTAKGEVPDGYNVSRLKKQNFLLGLESAAPSQTSVYFCASSSGGADTGELFFGEGSRLTVL
B12: recognises (PAEP peptide on HLA [2]).

B13: TCR of SEQ ID NOs 477 and 478 (TCR, V domains shown)
Valpha: B1 Valpha with D92S, T93G, G94S, R95A, A97Q, R105Q, Q107T, Q109L
Vbeta: DGGITQSPKYLFRKEGQNVTLSCEQNLNHDAMYWYRQDPGQGLRLIYYSQIVNDFQKGDIAEGYSVSREKKESFPLTVTSAQKNPTAFYLCASSPFADDSYGYTFGSGTRLTVV
B13: recognises (PAEP peptide on HLA [2]).

B14: TCR of SEQ ID NOs 481 and 482 (TCR, V domains shown)
Valpha: KQEVTQIPAALSVPEGENLVLNCSFTDSAIYNLQWFRQDPGKGLTSLLLIQSSQREQTSGRLNASLDKSSGRSTLYIAASQPGDSATYLCAATDSWGKLQFGAGTQVVVTP
Vbeta: DTGVSQNPRHKITKRGQNVTFRCDPISEHNRLYWYRQTLGQGPEFLTYFRNEAQLEKSRLLSDRFSAERPKGSFSTLEIQRTEQGDSAMYLCASSLFSRGTNYGYTFGSGTRLTVV
B14: recognises (PAEP peptide on HLA [3]).

B15: TCR of SEQ ID NOs 483 and 484 (TCR, V domains shown)
Valpha: ELKVEQNPLFLSMQEGKNYTIYCNYSTTSDRLYWYRQDPGKSLESLFVLLSNGAVKQEGRLMASLDTKARLSTLHITAAVHDLSATYFCAVGAYSGAGSYQLTFGKGTKLSVIP
Vbeta: NAGVIQNPRHLVRRRGQEARLRCSPMKGHSHVYWYRQLPEEGLKFMVYLQKENIIDESGMPKERFSAEFPKEGPSILRIQQVVRGDSAAYFCASSKYPAGEANEKLFFGSGTQLSVL
B15: recognises (PAEP peptide on HLA [3]).

B16: TCR of SEQ ID NOs 497 and 498 (TCR, V domains shown)
Valpha: KQEVTQIPAALSVPEGENLVLNCSFTDSAIYNLQWFRQDPGKGLTSLLLIQSSQREQTSGRLNASLDKSSGRSTLYIAASQPGDSATYLCAARYNFNKFYFGSGTKLNVKP
Vbeta: NAGVTQTPKFQVLKTGQSMTLLCAQDMNHEYMYWYRQDPGMGLRLIHYSVGEGTTAKGEVPDGYNVSRSTTEDFPLRLLSAAPSQTSVYFCASSYTPGPSHEQYFGPGTRLTVT
B16: recognises (PIWIL1 peptide on HLA [4]).

B17: TCR of SEQ ID NOs 499 and 500 (TCR, V domains shown)
Valpha: KQEVTQIPAALSVPEGENLVLNCSFTDSAIYNLQWFRQDPGKGLTSLLLIQSSQREQTSGRLNASLDKSSGRSTLYIAASQPGDSATYLCAVIDRAYSGAGSYQLTFGKGTKLSVIP
Vbeta: NAGVTQTPKFRILKIGQSMTLQCTQDMNHNYMYWYRQDPGMGLKLIHYSVGAGITDQGEVPNGYNVSRSTTEDFPLRLLSAAPSQTSVYFCASSLGVSYNEQFFGPGTRLTVL
B17: recognises (PIWIL1 peptide on HLA [4]).

B18: TCR of SEQ ID NOs 503 and 504 (TCR, V domains shown)
Valpha: B1 Valpha with S49F, D92M, T93G, G94N, R95T, R96D, A97K, T99I, S102T, Q109F
Vbeta: B5 Vbeta with P95Y, T96G, G97V, Y98G, G99S, E100P, A101L, F102H, Q105N, V112T
B18: recognises (PIWIL1 peptide on HLA [5]).

B19: TCR of SEQ ID NOs 507 and 508 (TCR, V domains shown)
Valpha: QKEVEQNSGPLSVPEGAIASLNCTYSDRGSQSFFWYRQYSGKSPELIMFIYSNGDKEDGRFTAQLNKASQYVSLLIRDSQPSDSATYLCAVKTSYDKVIFGPGTSLSVIP
Vbeta: B5 Vbeta with P95Y, T96G, G97A, Y98G, G99A, E100F, A101Y, F102T, Q105S
B19: recognises (PIWIL1 peptide on HLA [5]).

B20: TCR of SEQ ID NOs 511 and 512 (TCR, V domains shown)
Valpha: KQEVTQIPVALSVPEGENLVLNCSFTDSAIYNLQWFRQDPGKGLTSLLLIQSSQREQTSGRLNASLDKSSGRSTLYIAASQPGDSATYLCAVSPYNNNDMRFGAGTRLTVKP
Vbeta: NAGVTQTPKFQVLKTGQSMTLLCAQDMNHEYMYWYRQDPGMGLRLIHYSVGEGTTDKGEVPNGYNVSRSTTEDFPLRLLSAAPSQTSVYFCASSFTGDSPLHFGNGTRLTVT
B20: recognises (PIWIL1 peptide on HLA [6]).

B21: TCR of SEQ ID NOs 513 and 514 (TCR, V domains shown)
Valpha: B6 Valpha with R93G, Q96N, V98L, T99I, T102A, K105R, Q107A, I109H
Vbeta: B5 Vbeta with Q11R, Q22L, S33Y, S94R, P95A, Y98L, G99T
B21: recognises (PIWIL1 peptide on HLA [6]).

B22: TCR of SEQ ID NOs 523 and 524 (TCR, V domains shown)
Valpha: QKEVEQNSGPLSVPEGAIASLNCTYSDRGSQSFFWYRQYSGKSPELIMSIYSNGDKEDGRFTAQLNKASQYVSLLIRDSQPSDSATYLCAVNAGGTSYGKLTFGQGTILTVHP
Vbeta: NAGVTQTPKFRVLKTGQSMTLQCAQDMNHNSMYWYRQDPGMGLRLIYYSASEGTTDKGEVPNGYNVSRLNKREFSLRLESAAPSQTSVYFCASSEIDVWYNSPLHFGNGTRLTVT
B22: recognises (RLN1 peptide on HLA).
